Publication PMC11180205, “Single-molecule reconstruction of eukaryotic factor-dependent transcription termination” (Nature Communications, 2024)

Substrate: Nc1ncnc2c1ncn2[C@@H]1O[C@H](COP(=O)(O)OP(=O)(O)OP(=O)(O)O)[C@@H](O)[C@H]1O
Assay: single-molecule fluorescence (FRET / SNAP649 dwell time), Michaelis-Menten fit of k1 versus ATP
Type: biochemical, Saccharomyces cerevisiae
Settings: k1 step: ATP-dependent translocation on nascent RNA to stalled Pol II TEC (bioPol II/RNA-Cy3/DNA or Pol II/RNA-Cy3/bioDNA, 28 bp transcription unit); 10 nM Sen1 HD-SNAP649, 2 nM TFIIS, UTP and CTP, 20; pH 8.0

B1: Sen1 HD-SNAP649 (Sen1 helicase domain) (Saccharomyces cerevisiae S288C) (protein)
chain: AELAKQELEHMRKRLNVDMNPLYEIILQWDYTRNSEYPDDEPIGNYSDVKDFFNSPADYQKVMKPLLLLESWQGLCSSRDREDYKPFSIIVGNRTAVSDFYDVYASVAKQVIQDCGISESDLIVMAYLPDFRPDKRLSSDDFKKAQHTCLAKVRTLKNTKGGNVDVTLRIHRNHSFSKFLTLRSEIYCVKVMQMTTIEREYSTLEGLEYYDLVGQILQAKPSPPVNVDAAEIETVKKSYKLNTSQAEAIVNSVSKEGFSLIQGPPGTGKTKTILGIIGYFLSTKNASSSNVIKVPLEKNSSNTEQLLKKQKILICAPSNAAVDEICLRLKSGVYDKQGHQFKPQLVRVGRSDVVNVAIKDLTLEELVDKRIGERNYEIRTDPELERKFNNAVTKRRELRGKLDSESGNPESPMSTEDISKLQLKIRELSKIINELGRDRDEMREKNSVNYRNRDLDRRNAQAHILAVSDIICSTLSGSAHDVLATMGIKFDTVIIDEACQCTELSSIIPLRYGGKRCIMVGDPNQLPPTVLSGAASNFKYNQSLFVRMEKNSSPYLLDVQYRMHPSISKFPSSEFYQGRLKDGPGMDILNKRPWHQLEPLAPYKFFDIISGRQEQNAKTMSYTNMEEIRVAIELVDYLFRKFDNKIDFTGKIGIISPYREQMQKMRKEFARYFGGMINKSIDFNTIDGFQGQEKEIILISCVRADDTKSSVGFLKDFRRMNVALTRAKTSIWVLGHQRSLAKSKLWRDLIEDAKDRSCLAYACSGFLDPRNNRAQSILRKFNVPVPSEQEDDYKLPMEYITQGPDEVKSN
notes: helicase domain, residues 1095-1904; C-terminal PreScission site, SNAP-tag and 10xHis-tag kept, labelled with SNAP-Surface 649; expressed in E. coli BL21(DE3) codon plus RIPL; single molecule acts
Km: 40 ± 15 µM
